Assays:
[1] = target: T1, Tim-2 on CHO-Tim-2 transfectants (mouse, UniProt Q8R183 22-305); assay: flow cytometry, cell surface staining of CHO transfectants
T1 sequence: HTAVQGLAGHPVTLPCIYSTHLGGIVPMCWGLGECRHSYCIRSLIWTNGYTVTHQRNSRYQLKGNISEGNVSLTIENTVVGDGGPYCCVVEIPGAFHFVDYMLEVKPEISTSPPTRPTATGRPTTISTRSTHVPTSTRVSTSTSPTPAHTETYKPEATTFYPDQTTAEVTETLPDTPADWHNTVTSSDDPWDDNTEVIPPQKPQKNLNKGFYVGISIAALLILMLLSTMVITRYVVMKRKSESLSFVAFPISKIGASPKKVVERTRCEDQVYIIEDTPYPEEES

[2] = target: T2, Tim-3 on CHO-Tim-3 transfectants (UniProt Q8VIM0 20-281, limits assumed); assay: as above
T2 construct: whole, on cells

[3] = target: T3, Tim-4 on CHO or HEK293 transfectants (Tim-4-pDisplay construct, N-terminal HA tag, Tim-4 signal sequence … (mouse, UniProt Q6U7R4 30-343)); assay: as above
T3 construct: also called Tim-4 transfectants; CHO-Tim-4; not shown: N-terminal HA tag of the pDisplay vector
T3 sequence: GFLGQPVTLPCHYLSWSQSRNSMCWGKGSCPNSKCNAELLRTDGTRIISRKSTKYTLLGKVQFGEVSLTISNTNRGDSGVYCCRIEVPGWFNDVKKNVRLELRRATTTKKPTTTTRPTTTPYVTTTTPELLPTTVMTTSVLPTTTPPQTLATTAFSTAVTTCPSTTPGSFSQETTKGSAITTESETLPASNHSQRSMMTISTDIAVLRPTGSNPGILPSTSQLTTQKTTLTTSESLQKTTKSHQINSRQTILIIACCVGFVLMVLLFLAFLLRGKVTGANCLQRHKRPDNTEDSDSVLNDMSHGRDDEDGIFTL

[4] = target: T3, Tim-4 on CHO or HEK293 transfectants …; assay: flow cytometry, cell surface staining of CHO transfectants (FIG. 14A)
[5] = target: T4, Tim-1 on CHO-Tim-1 transfectants (CHO-K1 cells transfected with pEF6 containing murine Tim-1 cDNA) (murine, UniProt Q5QNS5 22-305); assay: flow cytometry, cell surface staining of CHO transfectants
T4 sequence: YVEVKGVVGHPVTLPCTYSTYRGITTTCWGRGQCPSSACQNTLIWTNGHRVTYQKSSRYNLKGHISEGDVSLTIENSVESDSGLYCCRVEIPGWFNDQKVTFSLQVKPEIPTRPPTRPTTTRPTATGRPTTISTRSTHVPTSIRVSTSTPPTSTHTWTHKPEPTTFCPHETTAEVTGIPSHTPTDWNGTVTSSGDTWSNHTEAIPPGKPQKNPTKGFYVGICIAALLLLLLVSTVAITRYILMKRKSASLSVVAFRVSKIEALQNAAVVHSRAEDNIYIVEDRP

T2 sequence (Q8VIM0 20-281 limits assumed): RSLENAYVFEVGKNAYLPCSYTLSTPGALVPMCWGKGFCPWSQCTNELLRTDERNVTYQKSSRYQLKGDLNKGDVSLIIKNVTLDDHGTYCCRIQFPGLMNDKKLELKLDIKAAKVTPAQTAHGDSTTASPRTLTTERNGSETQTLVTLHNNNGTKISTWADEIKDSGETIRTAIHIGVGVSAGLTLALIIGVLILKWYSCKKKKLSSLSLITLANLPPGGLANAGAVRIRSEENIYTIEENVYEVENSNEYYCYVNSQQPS

B1: Tim-4-Ig (soluble Ig fusion polypeptide: extracellular IgV and mucin domains of Tim-4 fused to a human IgG1 Fc tail) (Fc fusion)
chain: FLGQPVTLPCHYLSWSQSRNSMCWGKGSCPNSKCNAELLRTDGTRIISRKSTKYTLLGKVQFGEVSLTISNTNRGDSGVYCCRIEVPGWFNDVKKNVRLELRRATTTKKPTTTTRPTTTPYVTTTTPELLPTTVMTTSVLPTTTPPQTLATTAFSTAVTTCPSTTPGSFSQETTKGSAITTESETLPASNHSQRSMMTISTDIAVLRPTGSNPGILPSTSQLTTQKTTLTTSESLQKTTKSHQINSRQTIL
notes: Made by Chimerigen; also called tim-4:Ig fusion; not shown: human IgG1 Fc tail
binding result [1]: no binding
binding result [2]: no binding
binding result [3]: no binding

B2: Tim-1-Ig containing only the Tim-1 IgV domain (Fc fusion)
chain: SYVEVKGVVGHPVTLPCTYSTYRGITTTCWGRGQCPSSACQNTLIWTNGHRVTYQKSSRYNLKGHISEGDVSLTIENSVESDSGLYCCRVEIPGWFNDQKVTFSLQVKP
notes: also called Tim-1-Ig (IgV only); Tim-1-Ig fusion polypeptide (containing only the Tim-1 IgV domain); not shown: Ig Fc tail
binding result [4]: binds

B3: Tim-1-Ig, full-length (Tim-1 extracellular IgV and mucin domains fused to human IgG1 Fc tail) (Fc fusion)
chain: YVEVKGVVGHPVTLPCTYSTYRGITTTCWGRGQCPSSACQNTLIWTNGHRVTYQKSSRYNLKGHISEGDVSLTIENSVESDSGLYCCRVEIPGWFNDQKVTFSLQVKPEIPTRPPTRPTTTRPTATGRPTTISTRSTHVPTSIRVSTSTPPTSTHTWTHKPEPTTFCPHETTAEVTGIPSHTPTDWNGTVTSSGDTWSNHTEAIPPGKPQKNPTKG
notes: Only the extracellular IgV and mucin part stood in the assay; also called Tim1/Fc; full-length Tim-1-Ig; not shown: human IgG1 Fc tail
binding result [1]: no binding
binding result [5]: no binding
binding result [2]: no binding
binding result [4]: binds

B4: Tim-2-Ig (Tim-2 extracellular IgV and mucin domains fused to human IgG1 Fc tail) (Fc fusion)
chain: HTAVQGLAGHPVTLPCIYSTHLGGIVPMCWGLGECRHSYCIRSLIWTNGYTVTHQRNSRYQLKGNISEGNVSLTIENTVVGDGGPYCCVVEIPGAFHFVDYMLEVKPEISTSPPTRPTATGRPTTISTRSTHVPTSTRVSTSTSPTPAHTETYKPEATTFYPDQTTAEVTETLPDTPADWHNTVTSSDDPWDDNTEVIPPQKPQKNLNKG
notes: Only the extracellular IgV and mucin part stood in the assay; also called Tim2/Fc; not shown: human IgG1 Fc tail
binding result [1]: no binding
binding result [5]: no binding
binding result [2]: no binding
binding result [3]: no binding

From patent US20110045002A1 (BRIGHAM AND WOMEN S HOSPITAL, published 2011)
